Experimental data published in US20110289632A1, “METHYLKETONE SYNTHASE, PRODUCTION OF METHYLKETONES IN PLANTS AND BACTERIA” (The Regents of the University of Michigan, priority 2009, published 2011).

Tests used:
3-ketomyristoyl-ACP = assay: In vitro thioesterase activity assay; assay type: biochemical
Description: To examine the potential thioesterase activity of ShMKS1 and ShMKS2 in vitro, we added 2.5 μg of each protein to a 500 μL solution of freshly prepared 3-ketomyristoyl-ACP. This protein-linked substrate was prepared using a sequential in vitro enzymatic system involving the addition of multiple starting materials and enzymes and the reaction allowed to proceed for 5 hr (see Examples, Materials, and Methods). Due to the highly unstable nature of 3-ketomyristoyl-ACP, this compound was not further purified but instead the solution in which it was synthesized was used as the “substrate solution” for qualitative in vitro thioesterase activity assays.
Aliquots of this substrate solution were incubated with buffer, ShMKS1, ShMKS2, or both ShMKS1 and ShMKS2 for 30 min at 23° C. […]
3-Ketomyristoyl-ACP was synthesized in a 500 μL reaction volume containing 1,3-bis(tris(hydroxymethyl)methylamino) propane (20 mM, pH 7.0), malonyl-CoA (0.2 mM), lauroyl-CoA (0.2 mM), ShACP (0.1 mM), EcFabD (10 μg) and MtFabH (10 μg). […] Hexane extracts were analyzed by GC-MS as described above. The values for heat-treated samples shown in FIG. 20 were corrected for loss of methylketones during the heating step, as determined by comparisons with standards.

E. coli cells = assay: GC-MS of methylketones in spent media of E. coli cells expressing ShMKS1, ShMKS2 or ShMKS2 (D79A); assay type: cell-based, Escherichia coli; conditions: with or without acid and heat treatment
Description: To test if expression of either ShMKS1 or ShMKS2 (without its transit peptide) in E. coli results in the formation of 3-ketoacids, we collected spent media of bacterial cells expressing each of them (by centrifuging out the cells at the end of the incubation period), heated the spent media at 75° C. for 30 min in the presence of 1 M sulfuric acid, extracted with hexane, then injected the hexane fraction in a GC-MS. […] On the other hand, the spent medium of E. coli cells expressing ShMKS2 contained 5.6±0.32 μg/μL of total methylketones, and the amount of methylketones increased […], to 40.7±2.1 μg/μL, after the spent medium was treated with acid and heat (FIG. 17).
The coding regions of ShMKS1 and ShMKS2 (minus the transit peptide-encoding region) were each amplified by PCR and inserted into the E. coli expression vector pEXP-TOPO-CT (Invitrogen). The expression vectors were introduced into E. coli BL21 Star (DE3) cells, and gene expression was induced by the addition of 0.5 mM IPTG after the culture optical density at 600 nm had reached 0.65. After induction with IPTG and growth at 18° C. overnight, the cells expressing ShMKS1 or ShMKS2 were centrifuged at 5000 rpm for 15 minutes, and 1-mL aliquots of the spent medium were placed in individual vials for further analysis. […]

[1] = Treatment of spent medium of ShMKS2-expressing E. coli with purified ShMKS1; assay type: biochemical; conditions: 3 μg/mL final concentration, incubated 2 h prior to hexane extraction
Description: Moreover, the treatment with purified ShMKS1 seemed to favor an increase in 2-tridecanone over other methylketones (FIG. 18).
Aliquots (1 mL) of the spent medium of E. coli expressing ShMKS2, obtained by centrifuging the culture solution after the incubation time at 5,000 rpm for 15 min and collecting the solution without the cells, were treated in the following ways: 1. Incubated with 40 μl (3 μg) of purified MKS1 in phosphate buffer (12.5 mM NaH2PO4, 125 mM NaCl, 2 mM DTT, pH 6.8) for 2 hrs at 30° C. 3. Incubated at 75° C. for 30 min followed by 30 min at 30° C. 4. Incubated with 1 mL of 2M H2SO4 at 75° C. for 30 min followed by 30 min at 30° C. After the various treatments, 1 mL of hexane containing 5 ng/μL linalool as an internal standard was added and the resulting mixture was vortexed and centrifuged at 5000 rpm for 10 min. Two μL of the resulting extract were injected into the GC-MS for determination of methylketones. GC-MS and product analysis were performed as described by Ben-Israel et al, (2009) Multiple biochemical and morphological factors underlie the production of methylketones in tomato trichomes, Plant Physiology 151: 1952-1964.

B1: ShMKS1: methylketone synthase 1 from Solanum habrochaites glabratum (SEQ ID NO: 17); recombinant, 3-ketoacid decarboxylase (protein)
chain: MEKSMSPFVKKHFVLVHTAFHGAWCWYKIVALMRSSGHNVTALDLGASGINPKQALQIPNFSDYLSPLMEFMASLPANEKIILVGHALGGLAISKAMETFPEKISVAVFLSGLMPGPNIDATTVCTKAGSAVLGQLDNCVTYENGPTNPPTTLIAGPKFLATNVYHLSPIEDLALATALVRPLYLYLAEDISKEVVLSSKRYGSVKRVFIVATENDALKKEFLKLMIEKNPPDEVKEIEGSDHVTMMSKPQQLFTTLLSIANKYK
modifications: ShMKS1
notes: recombinant, 3-ketoacid decarboxylase
amount of 2-tridecanone vs buffer-incubated sample treated with acid and heat (3-ketomyristoyl-ACP; 2.5 μg protein, 30 min at 23° C., directly extracted with hexane): slightly higher, but not significantly so
in vitro thioesterase activity (3-ketomyristoyl-ACP; 3-ketomyristoyl-ACP substrate solution): little or no
methylketones in spent medium (E. coli cells): no methylketones
levels of extractable methylketones vs spent medium treated with phosphate buffer alone [1]: significantly higher
